Reference: patent US20190112392A1

Legend:
[1] = target: soluble recombinant human TCR alpha/beta (2XN9)-zipper protein (human); experiment: BLI (Octet RED384), immobilized human sTCR(2XN9)-zipper, 1:1 model
[2] = target: human TCR(2IAN)/CD3 expressed on HEK293H cells (human); experiment: flow cytometry, HEK293H human TCR(2IAN)/CD3 cells
[3] = target: soluble recombinant human TCR alpha/beta (2XN9)-zipper protein (human); experiment: ELISA, coated soluble human TCR(2XN9)-zipper
[4] = target: human TCR(2XN9)/CD3 expressed on CHO-K1 cells (human); experiment: flow cytometry, CHO-K1 human TCR(2XN9)/CD3 cells
[5] = target: EGFR and CEACAM5 co-expressed on LS174T and LoVo cells (UniProt P00533); experiment: cell-based or functional assay
[6] = target: EGFR and CEACAM5 co-expressed on LS174T and LoVo cells (UniProt P00533); experiment: flow cytometry, LS174T cells; LS174T cells
[7] = target: EGFR and CEACAM5 co-expressed on LS174T and LoVo cells (UniProt P00533); experiment: flow cytometry, LoVo cells
[8] = target: EGFR and CEACAM5 co-expressed on LS174T and LoVo cells (UniProt P00533); experiment: flow cytometry, LS174T cells

| MCF at 1 µM [2] [MCF] | EC50 [4] [nM] | Binder | also measured |
| --- | --- | --- | --- |
| 91200 | – | T0170055A02 (VHH, not shown: small tags and cut ends) VHH: EVQLVESGGGLVQPGGSLRLSCAASGDVHKINILGWYRQAPAKEREMVAHITIGDATDYADSAKGRFTISRDEAKNMVYLQMNSLKPEDTAVYFCRAYSRIYPYNYWGQGTLVTVSS | kon [1]: 49000 M⁻¹ s⁻¹ |
| 86500 | – | T0170056G05 (VHH, not shown: small tags and cut ends) VHH: EVQLVESGGGLVQPGGSLRLSCVASGDVHKINFLGWYRQAPGKEREKVAHISIGDQTDYADSAKGRFTISRDESKNMVYLQMNSLKPEDTAVYFCRAFSRIYPYDYWGQGTLVTVSS | kon [1]: 50000 M⁻¹ s⁻¹ |
| 31200 | 12 | T0170068G05 (VHH, not shown: small tags and cut ends) VHH: VQLVEESGGGLVQPGGSLRLSCITSGETFKINIWGWYRQAPGKQRELVASLTIGGATNYADSVKGRFTISEDSAKNTVYLQMNSLKPEDTAVYFCNAKSRIYPYDYWGRGTQVTVSS | EC50 [3]: 16 nM; EC50 [2]: > 100 nM |
| – | 460 | T017000051 (bispecific antibody) EVQLVESGGGLVQPGGSLRLSCTFSGGTFSSYTMGWFRQAPGKEREFVAEVRWGGVTTYSNSLKDRFSISEDSVKNAVYLQMNSLKPEDTAVYYCAAVRQMYMTVVPDYWGQGTLVTVSSGGGGSGGGGSGGGGSGGGGSGGGGSGGGGSGGGGSEVQLVESGGGLVQPGGSLRLSCAASGEIGRINFYRWYRQAPGNQREVVATITIADKTDYADSAKGRFTISRDESRNMVYLQMSSLKPEDTAVYFCHAGSRLYPYDYWGQGTLVTVSSGAADYKDHDGDYKDHDIDYKDDDDKGAAHHHHHH | – |
| – | 190 | T017000068 (bispecific antibody) EVQLVESGGGLVQPGGSLRLSCTFSGGTFSSYTMGWFRQAPGKEREFVAEVRWGGVTTYSNSLKDRFSISEDSVKNAVYLQMNSLKPEDTAVYYCAAVRQMYMTVVPDYWGQGTLVTVSSGGGGSGGGGSGGGGSGGGGSGGGGSGGGGSGGGGSEVQLVESGGGLVQPGGSLRLSCITSGETFKINIWGWYRQAPGKQRELVASLTIGGATNYADSVKGRFTISEDSAKNTVYLQMNSLKPEDTAVYFCNAKSRLYPYDYWGQGTLVTVSSGAADYKDHDGDYKDHDIDYKDDDDKGAAHHHHHH | – |
| – | 110 | T017000055 (bispecific antibody) EVQLVESGGGLVQPGGSLRLSCTFSGGTFSSYTMGWFRQAPGKEREFVAEVRWGGVTTYSNSLKDRFSISEDSVKNAVYLQMNSLKPEDTAVYYCAAVRQMYMTVVPDYWGQGTLVTVSSGGGGSGGGGSGGGGSGGGGSGGGGSGGGGSGGGGSEVQLVESGGGLVQPGGSLRLSCAASGDVHKINILGWYRQAPAKEREMVAHITIGDATDYADSAKGRFTISRDEAKNMVYLQMNSLKPEDTAVYFCRAYSRIYPYNYWGQGTLVTVSSGAADYKDHDGDYKDHDIDYKDDDDKGAAHHHHHH | – |
| – | 78 | T017000076 (bispecific antibody) EVQLVESGGGLVQPGGSLRLSCTFSGGTFSSYTMGWFRQAPGKEREFVAEVRWGGVTTYSNSLKDRFSISEDSVKNAVYLQMNSLKPEDTAVYYCAAVRQMYMTVVPDYWGQGTLVTVSSGGGGSGGGGSGGGGSGGGGSGGGGSGGGGSGGGGSEVQLVESGGGLVQPGGSLRLSCVASGDVHKINFLGWYRQAPGKEREKVAHISIGDQTDYADSAKGRFTISRDESKNMVYLQMNSLKPEDTAVYFCRAFSRIYPYDYWGQGTLVTVSSGAADYKDHDGDYKDHDIDYKDDDDKGAAHHHHHH | – |
| – | – | T017000107 (protein) EVQLVESGGGLVQAGGSLRLSCAASGRTFSSYVMGWFRQATGKEREFVATIAWDSGSTYYADSVKGRFTISRDNAKNTVHLQMNSLKPEDTAVYYCAASYNVYYNNYYYPISRDEYDYWGQGTLVTVSSGGGGSGGGGSGGGGSGGGGSGGGGSGGGGSGGGGSEVQLVESGGGSVQAGGSLRLSCAASGDTYGSYWMGWFRQAPGKEREGVAAINRGGGYTVYADSVKGRFTISRDTAKNTVYLQMNSLRPDDTADYYCAASGVLGGLHEDWFNYWGQGTLVTVSSGGGGSGGGGSGGGGSGGGGSGGGGSGGGGSGGGGSEVQLVESGGGLVQPGGSLRLSCVASGDVHKINFLGWYRQAPGKEREKVAHISIGDQTDYADSAKGRFTISRDESKNMVYLQMNSLKPEDTAVYFCRAFSRIYPYDYWGQGTLVTVSSGAADYKDHDGDYKDHDIDYKDDDDKGAAHHHHHH | IC50, xCELLigence human T cell mediated killing of LS174T cells, E:T 15, 30-40 h [5]: 10 nM; IC50, xCELLigence human T cell mediated killing of LS174T cells, E:T 15, 50-60 h [5]: 5.3 nM; IC50, xCELLigence human T cell mediated killing of LoVo cells, E:T 15, 30-40 h [5]: 0.3 nM; IC50, xCELLigence human T cell mediated killing of LoVo cells, E:T 15, 50-60 h [5]: 0.061 nM; EC50 [6]: 11 nM; EC50 [7]: 3.2 nM; Top [7]: 88600; Top [8]: 64600 |
| – | 17 | T017000038 (bispecific antibody) EVQLVESGGGLVQPGGSLRLSCAASGEIGRINFYRWYRQAPGNQREVVATITIADKTDYADSAKGRFTISRDESRNMVYLQMSSLKPEDTAVYFCHAGSRLYPYDYWGQGTLVTVSSGGGGSGGGGSGGGGSGGGGSGGGGSGGGGSGGGGSEVQLVESGGGLVQPGGSLRLSCTFSGGTFSSYTMGWFRQAPGKEREFVAEVRWGGVTTYSNSLKDRFSISEDSVKNAVYLQMNSLKPEDTAVYYCAAVRQMYMTVVPDYWGQGTLVTVSSGAADYKDHDGDYKDHDIDYKDDDDKGAAHHHHHH | – |
| 10000 | 31 | T0170061G01 (VHH, not shown: small tags and cut ends) VHH: EVQLVESGGGLVQPGGSLRLSCAASGEIGRINFYRWYRQAPGNQREVVATITIADKTDYADSAKGRFTISRDESRNMVYLQMSSLKPEDTAVYFCHAGSRLYPYDYWGQGTQVTVSS | EC50 [3]: 52 nM; EC50 [2]: > 100 nM |
| – | 17 | T017000042 (bispecific antibody) EVQLVESGGGLVQPGGSLRLSCAASGDVHKINILGWYRQAPAKEREMVAHITIGDATDYADSAKGRFTISRDEAKNMVYLQMNSLKPEDTAVYFCRAYSRIYPYNYWGQGTLVTVSSGGGGSGGGGSGGGGSGGGGSGGGGSGGGGSGGGGSEVQLVESGGGLVQPGGSLRLSCTFSGGTFSSYTMGWFRQAPGKEREFVAEVRWGGVTTYSNSLKDRFSISEDSVKNAVYLQMNSLKPEDTAVYYCAAVRQMYMTVVPDYWGQGTLVTVSSGAADYKDHDGDYKDHDIDYKDDDDKGAAHHHHHH | – |
| – | 16 | T017000074 (bispecific antibody) EVQLVESGGGLVQPGGSLRLSCVASGDVHKINFLGWYRQAPGKEREKVAHISIGDQTDYADSAKGRFTISRDESKNMVYLQMNSLKPEDTAVYFCRAFSRIYPYDYWGQGTLVTVSSGGGGSGGGGSGGGGSGGGGSGGGGSGGGGSGGGGSEVQLVESGGGLVQPGGSLRLSCTFSGGTFSSYTMGWFRQAPGKEREFVAEVRWGGVTTYSNSLKDRFSISEDSVKNAVYLQMNSLKPEDTAVYYCAAVRQMYMTVVPDYWGQGTLVTVSSGAADYKDHDGDYKDHDIDYKDDDDKGAAHHHHHH | – |
| – | 20 | T017000031 (bispecific antibody) EVQLVESGGGLVQPGGSLRLSCITSGETFKINIWGWYRQAPGKQRELVASLTIGGATNYADSVKGRFTISEDSAKNTVYLQMNSLKPEDTAVYFCNAKSRLYPYDYWGQGTLVTVSSGGGGSGGGGSGGGGSGGGGSGGGGSGGGGSGGGGSEVQLVESGGGLVQPGGSLRLSCTFSGGTFSSYTMGWFRQAPGKEREFVAEVRWGGVTTYSNSLKDRFSISEDSVKNAVYLQMNSLKPEDTAVYYCAAVRQMYMTVVPDYWGQGTLVTVSSGAADYKDHDGDYKDHDIDYKDDDDKGAAHHHHHH | – |
